Results from patent publication US20080182299A1.

Assays:
[1] = molecular target: Mouse monoclonal antibody clone 13A3.G6.H1, lot #18881C, raised against CGEN3901 (SEQ ID NO:50); assay: antigen capture competitive ELISA format #4; coat CgenBNP_49; detector 13A3.G6.H1; free peptide spiked in serum as competitor
[2] = molecular target: Mouse monoclonal antibody clone 13A3.G6.H1, lot #18881C, raised against CGEN3901 (SEQ ID NO:50); assay: antigen capture competitive ELISA format #4, repeatability tests
[3] = molecular target: Mouse monoclonal antibody clone 13A3.G6.H1, lot #18881C, raised against CGEN3901 (SEQ ID NO:50); assay: antibody capture competitive ELISA format #5; coat 13A3.G6.H1; tracer biotin-labeled CgenBNP_29; unlabeled peptide as competitor

LOD [1] [ng/mL] | LOD [2] [ng/mL] | LOD [3] [ng/mL] | Binder
0.3 | 1 to 3 | 5 | AEGSSGGLDSSNERVLTCCPKRPSSFLWN [AEWN 29 (also called herein CgenBNP_29, SEQ ID NO: 48)]
0.6 | 1 to 3 | – | H-HPLGSPGSASDLETSGLQVRAEGSSGGLDSSNERVLTCCPKRPSSFLWN-OH (cysteine pairing not given here) [HPWN49 (also called herein CgenBNP_49, SEQ ID NO: 49)]
